This passage reports Kd results from PMC3753642.

Common to all, as to test: EMSA
Common to all, as to conditions: TNK buffer (composition and pH not in material), 30 C
Background: In EMSA bound probe runs differently from free probe, usually more slowly.

In data set [1] the target is Hfq WT (Escherichia coli) (UniProt P0A6X3).
For data set [2], the target named is Hfq:R16A R16A (Escherichia coli) (UniProt P0A6X3).
Data set [3] addresses Hfq TM R16A;R17A;R19D (Escherichia coli) (UniProt P0A6X3).

For orientation: Kd means the constant that tells how readily two partners part at equilibrium. A lower Kd goes with a tighter complex. With ArcZ56 sRNA, the Kd was 0.049 µM in data set [1] and 0.19 µM in data set [2].
In the same order, the values of rpoS323 mRNA leader are 0.144 µM and 0.196 µM.
In the same order, the values of RprA sRNA are 0.187 µM and 0.623 µM.
In the case of DsrA sRNA, the values for the Kd in data set [3], in data set [1] and in data set [2] were 0.3 µM, 0.132 µM and 0.373 µM, respectively.
